The values that follow come from publication PMC9977683, “IFNγ binding to extracellular matrix prevents fatal systemic toxicity” (Nature Immunology, 2023).

Experiment [1] addresses IFNγ receptor (Homo sapiens) (UniProt P15260). The conditions noted are these: cited from earlier work.
Experiment [2] addresses T1, IFNγR1 extracellular domain (amino acids 26–254), recombinant (mouse, UniProt P15261 26-254).
T1 construct: mouse interferon-gamma receptor 1, extracellular domain, amino acids 26-254, cloned from mouse cDNA into pET26b-N-His6-SUMO; Immobilised on the chip through anti-His5; source: E. coli (T7 express, with pRARE plasmid), periplasmic expression, purified (osmotic shock, HisTrap, gel filtration); not shown: His6-SUMO, N-terminal, cleaved; His6, C-terminal, kept
T1 sequence (looked up): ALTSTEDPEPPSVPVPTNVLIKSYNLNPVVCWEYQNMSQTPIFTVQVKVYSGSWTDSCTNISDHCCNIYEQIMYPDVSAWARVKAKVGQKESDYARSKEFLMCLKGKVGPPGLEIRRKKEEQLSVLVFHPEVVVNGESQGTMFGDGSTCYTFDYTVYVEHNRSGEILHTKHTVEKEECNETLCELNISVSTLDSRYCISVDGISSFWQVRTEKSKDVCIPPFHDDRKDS
As to the kind of experiment: SPR; Biacore T200, CM4 chip coated with anti-His5 onto which recombinant IFNγR1 was immobilised; IFNγ variants injected over 180 s at 0, 1, 2.5, 5, 10, 25 and 50 nM. The conditions noted are these: both partners purified. For orientation: Surface plasmon resonance follows binding to a sensor surface in real time, without labels.

Chain of IFNγ receptor (Homo sapiens) (P15260 18-245): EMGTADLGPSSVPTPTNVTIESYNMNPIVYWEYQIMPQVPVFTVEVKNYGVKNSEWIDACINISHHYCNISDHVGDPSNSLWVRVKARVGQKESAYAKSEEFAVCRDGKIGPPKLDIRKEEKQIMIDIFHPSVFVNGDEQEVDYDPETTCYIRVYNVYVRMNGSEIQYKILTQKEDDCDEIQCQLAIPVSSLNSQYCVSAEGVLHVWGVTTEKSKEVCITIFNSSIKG

As usually defined, the Kd is the constant that tells how readily two partners part at equilibrium. Consider IFNγ (from UniProt P01579), for which the Kd in experiment [1] was 0.5 nM.

B1: Interferon-γ (IFNγ), recombinant (ligand, mouse, UniProt P01580 23-155, looked up)
chain: HGTVIESLESLNNYFNSSGIDVEEKSLFLDIWRNWQKDGDMKILQSQIISFYLRLFEVLKDNQAISNNISVIESHLITTFFSNSKAKKDAFMSIAKFEVNNPQVQRQAFNELIRVVHQLLPESSLRKRKRSRC
notes: mouse interferon-gamma, cDNA without the leader peptide, codon optimized, in pET28-N-His6-SUMO; also called IFNγ^wt; source: E. coli (T7 express, with pRARE plasmid), purified (HisTrap, size-exclusion chromatography); not shown: His6-SUMO, N-terminal, cleaved
For B1, the binding result in experiment [2] is reported as “binds”.

B2: IFNγ–green fluorescent protein fusion protein (IFNγ–GFP), recombinant (ligand, mouse, UniProt P01580 23-155, looked up)
chain: B1 chain
notes: mouse interferon-gamma, cDNA without the leader peptide, with GFP fused to the C-terminus; source: E. coli (T7 express, with pRARE plasmid), purified (HisTrap, Superdex 200); not shown: His6-SUMO, N-terminal, cleaved; GFP, C-terminal, kept
Regarding B2, the binding result in experiment [2] was “binds”.
